Data from publication PMC2171419 (The Journal of Cell Biology, 2005).
Numbering of substitutions follows the chain as printed.

B1: His-tagged Bad wild type, phosphorylated by CA-Akt (natural protein, mouse, UniProt Q61337 1-204, looked up)
chain: MGTPKQPSLAPAHALGLRKSDPGIRSLGSDAGGRRWRPAAQSMFQIPEFEPSEQEDASATDRGLGPSLTEDQPGPYLAPGLLGSNIHQQGRAATNSHHGGAGAMETRSRHSSYPAGTEEDEGMEEELSPFRGRSRSAPPNLWAAQRYGRELRRMSDEFEGSFKGLPRPKSAGTATQMRQSAGWTRIIQSWWDRNLGKGGSTPSQ
modifications: phosphoserine at 136 (by CA-Akt in vitro)
B2: His-tagged Bad Ser128A-Thr201A, phosphorylated by active Akt (natural protein, mouse, UniProt Q61337 1-204, looked up)
chain: B1 chain with S128A, T201A
modifications: phosphoserine at 136 (by CA-Akt in vitro)
B3: His-tagged Bad Ser128A, phosphorylated by active Akt (natural protein, mouse, UniProt Q61337 1-204, looked up)
chain: B1 chain with S128A
modifications: phosphoserine at 136 (by CA-Akt in vitro)
B4: His-tagged Bad Thr201A, phosphorylated by active Akt (natural protein, mouse, UniProt Q61337 1-204, looked up)
chain: B1 chain with T201A
modifications: phosphoserine at 136 (by CA-Akt in vitro)

How the values were obtained:
GST–14-3-3ζ Ser184A = target: T1, GST–14-3-3ζ Ser184A (UniProt P63104 1-245, Ser184A); assay: pull-down
T1 sequence (looked up): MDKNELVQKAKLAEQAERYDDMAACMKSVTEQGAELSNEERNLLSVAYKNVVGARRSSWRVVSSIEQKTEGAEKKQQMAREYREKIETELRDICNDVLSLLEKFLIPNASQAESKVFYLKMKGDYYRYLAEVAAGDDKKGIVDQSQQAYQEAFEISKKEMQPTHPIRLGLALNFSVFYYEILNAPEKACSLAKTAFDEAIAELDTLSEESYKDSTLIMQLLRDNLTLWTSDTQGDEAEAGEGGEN

GST–14-3-3ζ (WT) = target: T2, GST–14-3-3ζ (WT) (UniProt P63104 1-245); assay: pull-down
T2 sequence (looked up): T1 sequence (looked up) with A184S

Row | Binder | binding result (GST–14-3-3ζ Ser184A) | binding result (GST–14-3-3ζ (WT))
1 | B1 | binds | –
2 | B2 | – | binds
3 | B3 | – | binds
4 | B4 | – | binds
